Key:
[1] = biological target: the molecule itself; assay: AUC; sedimentation velocity, 45,000 rpm, 4 μM protein, 4°C, 20 mM potassium phosphate pH 7.5, 200 mM NaCl, 2 mM dithiothreitol
[2] = biological target: the molecule itself; assay: SEC; lysate of 16 ovaries of non-irradiated or γ-irradiated (0.52 Gy) P5 mice, Superose 6 PC 3.2/30, 4°C, 50 mM sodium phosphate, 100 mM NaCl, phosphatase inhibitors; fractions blotted with 4A4; dimer fraction 1.55 ml, tetramer fraction 1.3 ml
[3] = biological target: the molecule itself; assay: SEC; lysate of ovaries of irradiated mice incubated with λ-Protein Phosphatase (30°C, 45 min, 1.25 mM MnCl2), then Superose 6 PC 3.2/30 and western blot

B1: MBP-TAp63γ (natural protein, mouse, UniProt O88898-5 40-483, looked up)
chain: MSQSTQTSEFLSPEVFQHIWDFLEQPICSVQPIELNFVDEPSENGATNKIEISMDCIRMQDSDLSDPMWPQYTNLGLLNSMDQQIQNGSSSTSPYNTDHAQNSVTAPSPYAQPSSTFDALSPSPAIPSNTDYPGPHSFDVSFQQSSTAKSATWTYSTELKKLYCQIAKTCPIQIKVMTPPPQGAVIRAMPVYKKAEHVTEVVKRCPNHELSREFNEGQIAPPSHLIRVEGNSHAQYVEDPITGRQSVLVPYEPPQVGTEFTTVLYNFMCNSSCVGGMNRRPILIIVTLETRDGQVLGRRCFEARICACPGRDRKADEDSIRKQQVSDSAKNGDAFRQNTHGIQMTSIKKRRSPDDELLYLPVRGRETYEMLLKIKESLELMQYLPQHTIETYRQQQQQQHQHLLQKHLLSACFRNELVEPRGEAPTQSDVFFRHSNPPNHSVYP
notes: 193 amino acids less per monomer than TAp63α; cloned into pMAL-c4X; almost equal distribution between dimers and tetramers at 30 nM; source: E. coli (T7 express), purified (Ni-Sepharose, Amylose resin, SEC); not shown: MBP, N-terminal, kept
With B1 the “stoichiometry N” value [1] was 4.

B2: TAp63α in oocytes of non-irradiated mice (natural protein, UniProt O88898-1 40-680, looked up)
chain: MSQSTQTSEFLSPEVFQHIWDFLEQPICSVQPIELNFVDEPSENGATNKIEISMDCIRMQDSDLSDPMWPQYTNLGLLNSMDQQIQNGSSSTSPYNTDHAQNSVTAPSPYAQPSSTFDALSPSPAIPSNTDYPGPHSFDVSFQQSSTAKSATWTYSTELKKLYCQIAKTCPIQIKVMTPPPQGAVIRAMPVYKKAEHVTEVVKRCPNHELSREFNEGQIAPPSHLIRVEGNSHAQYVEDPITGRQSVLVPYEPPQVGTEFTTVLYNFMCNSSCVGGMNRRPILIIVTLETRDGQVLGRRCFEARICACPGRDRKADEDSIRKQQVSDSAKNGDGTKRPFRQNTHGIQMTSIKKRRSPDDELLYLPVRGRETYEMLLKIKESLELMQYLPQHTIETYRQQQQQQHQHLLQKQTSMQSQSSYGNSSPPLNKMNSMNKLPSVSQLINPQQRNALTPTTMPEGMGANIPMMGTHMPMAGDMNGLSPTQALPPPLSMPSTSHCTPPPPYPTDCSIVSFLARLGCSSCLDYFTTQGLTTIYQIEHYSMDDLASLKIPEQFRHAIWKGILDHRQLHDFSSPPHLLRTPSGASTVSVGSSETRGERVIDAVRFTLRQTISFPPRDEWNDFNFDMDSRRNKQQRIKEEGE
notes: endogenous murine TAp63α of oocytes; also called TAp63α (NIRR); source: endogenous, ovary lysate of non-irradiated P5 CD-1 mice
B2 was tested, and the “stoichiometry N” value [2] was 2.

B3: phosphorylated TAp63α in oocytes of γ-irradiated mice (natural protein, UniProt O88898-1 40-680, looked up)
chain: B2 chain
modifications: phosphorylated after γ-irradiation; sites not stated
notes: endogenous murine TAp63α of oocytes, phosphorylated after DNA damage; both dimer and tetramer fractions hold protein after irradiation; also called TAp63α (IRR); source: endogenous, ovary lysate of P5 CD-1 mice 6 hr after 0.52 Gy γ-irradiation
For B3, the “stoichiometry N” value [2] was 4.

B4: λ-phosphatase-treated TAp63α obtained from irradiated oocytes (natural protein, UniProt O88898-1 40-680, looked up)
chain: B2 chain
notes: endogenous murine TAp63α of irradiated oocytes after dephosphorylation in the lysate; kept apart because it was first phosphorylated in vivo and then dephosphorylated; also called dephosphorylated TAp63α (IRR + λPP); source: endogenous, ovary lysate of irradiated P5 mice, treated with λ-Protein Phosphatase (30°C, 45 min)
For B4, the “stoichiometry N” value [3] was 4.

From publication PMC3087504, “DNA Damage in Oocytes Induces a Switch of the Quality Control Factor TAp63α from Dimer to Tetramer” (Cell, 2011)
